Measurements from PMC3998876.

Target: biotinylated mouse Izumo1Cd4d3+4 (entire ectodomain, bait form) (mouse) (UniProt Q9D9J7)
Experiment: SPR

Sequence of UniProt Q9D9J7 (Q9D9J7 22-319): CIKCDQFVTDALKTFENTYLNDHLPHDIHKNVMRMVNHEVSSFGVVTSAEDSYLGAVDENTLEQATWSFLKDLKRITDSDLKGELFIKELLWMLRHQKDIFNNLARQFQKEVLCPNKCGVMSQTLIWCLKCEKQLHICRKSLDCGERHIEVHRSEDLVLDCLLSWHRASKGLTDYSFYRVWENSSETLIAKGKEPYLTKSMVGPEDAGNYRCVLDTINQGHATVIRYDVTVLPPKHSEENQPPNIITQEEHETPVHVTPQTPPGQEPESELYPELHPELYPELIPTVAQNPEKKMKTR

In the case of “mouse JunoCd4d3+4-6His (purified soluble Juno ectodomain) (from UniProt Q9EQF4 20-222) (domain or fragment)”, the Kd is reported as 12 µM.
